For the test, the target named is T1, cynomolgus LAG-3 (cynomolgus).
T1 construct: whole, on cells; also called primate LAG-3
In words: flow cytometry on transfected CHO cells and activated cynomolgus T cells; which cell type gives which end is not stated. Background: A flow cytometer gives signals particle by particle.

The term EC50 denotes the concentration needed to bring the measured effect to its halfway point. A high value points to a less potent agent.

B1: BMS-986016 (antibody, human IgG4 S228P, kappa, V domains shown)
VH: QVQLQQWGAGLLKPSETLSLTCAVYGGSFSDYYWNWIRQPPGKGLEWIGEINHRGSTNSNPSLKSRVTLSLDTSKNQFSLKLRSVTAADTAVYYCAFGYSDYEYNWFDPWGQGTLVTVSS
VL: EIVLTQSPATLSLSPGERATLSCRASQSISSYLAWYQQKPGQAPRLLIYDASNRATGIPARFSGSGSGTDFTLTISSLEPEDFAVYYCQQRSNWPLTFGQGTNLEIKR
notes: Fully human IgG4 with the stabilizing hinge mutation S228P; also called anti-LAG-3 antibody
As for B1, the EC50 lay in the range of 21.5 to 34.3 nM.
